In patent US20250099379A1, “NEW SYSTEM FOR THE TOPICAL PHARMACOLOGICAL RELEASE OF AN ACTIVE INGREDIENT” (UNIVERSITÀ DEGLI STUDI DI PADOVA, priority 2022, published 2025):

Columns and labels:
[1] = Release of BSA-FITC from wet silica sol-gel suspended in 3% HPMC hydrogel or buffer (dialysis tubes); type: physicochemical; conditions: BSA-FITC in silica hydrogel (SiO2 8%), equal volume of release buffer or 3% HPMC; PBST+0.1% BSA at 37° C.
Procedure: In a preliminary test it was evaluated if the use of hydrogel of 3% w/v HPMC as diluent for the suspension of silica nanoparticles influences the release of a protein incorporated therein. To this purpose, preparations constituted by silica hydrogel having incorporated the model protein BSA-FITC, suspended in an equal volume of release buffer or t 3% HPMC, were inserted in dialysis tubes (cut-off 100 KDa) and immersed in PBST+0.1% BSA at 37° C. At programmed time points the content of BSA-FITC was quantified in the acceptor solution by fluorescence spectroscopy.

[2] = tested on: MDCK cells; assay: Scatter assay on MDCK cells; type: cell-based, canine; conditions: solution of release from gel at SB3 50 μg/mL; similar to recombinant SB3 positive control (CTR+)
Procedure: The results were represented graphically by tracing the ratio between the amount of protein released in each time point (Mt) and the total protein (Mtot) incorporated in function of time. The released functional capability of SB3 was verified by scatter assay, as previously reported (Quarta et al. J Pathol 2010; 221:343-356). In detail, canine kidney cells Madin-Darby (MDCK) (5×10^3 cells/well), were treated with two different dilutions of SB3 released by the wet silica microspheres for 5 and 24 hours. The cells were fixed in 4% formaldehyde, coloured with blue solution of Coomassie and the scattering effect was analysed by using the Axiovert 200M microscope (Carl Zeiss Microscopy GmbH, Germania). As positive control, SB3 recombinant at 200 ng/ml was used.

[3] = Release of SB3 from wet silica sol-gel into buffer (ELISA quantification); type: physicochemical; conditions: wet silica sol-gel (8% SiO2 w/w), crushed manually; gels loaded at SB3 5 and 50 μg/mL; immersion in buffer at 37
Procedure: 200 μl of the prepared product containing SB3 in silica hydrogel were suspended in 10 mL of phosphate buffer 100 mM, 0.05% Tween 20, 0.1% BSA, pH 6.0 and incubated at 37° C. under slight stirring. At defined time moments (0 h, 5 h and 24 h) the sample was centrifuged (1390 g) and a small portion of supernatant (250 μl) was removed by titration of SB3 and replaced with fresh buffer. The compound was then re-suspended in the supernatant by a slight vortex and the incubation at 37° C. was continued until the subsequent moment. The concentration of SB3 in the supernatants was quantified by sandwich ELISA (kit HEPA Lisa, Xeptagen S.p.A, Vega Park, Venice) by following the manufacturer's instructions. […] After washing, the concentration of SB3 was detected by incubation with 100 μL of anti-SB3 secondary Ab conjugated with streptavidin HRP (0.5 μg/mL). The plate was developed with a solution of substrate 3,3′,5,5′-tetramethylbenzidin (TMB) ready for use. The reaction was interrupted with 1 mol/L of HCl (100 μL) and the absorbance at 450 nm was measured on a reader of microplates (Victor×3; Perkin Elmer, Waltham, MA, USA). […]

Row | Molecule | Release profiles in presence or absence of HPMC hydrogel [1] | Scattering of cohesive cell colonies [2] | Mechanism of SB3 release (Mt/Mtot % vs square root of time, linear correlation) [3]
1 | BSA-FITC: model protein BSA-FITC incorporated in silica hydrogel | almost superimposable |  | 
2 | SB3: human SerpinB3 protease inhibitor protein, produced recombinantly; incorporated in wet silica sol-gel (8% SiO2) (protein, UniProt P29508 1-390, looked up) Serpin B3: MNSLSEANTKFMFDLFQQFRKSKENNIFYSPISITSALGMVLLGAKDNTAQQIKKVLHFDQVTENTTGKAATYHVDRSGNVHHQFQKLLTEFNKSTDAYELKIANKLFGEKTYLFLQEYLDAIKKFYQTSVESVDFANAPEESRKKINSWVESQTNEKIKNLIPEGNIGSNTTLVLVNAIYFKGQWEKKFNKEDTKEEKFWPNKNTYKSIQMMRQYTSFHFASLEDVQAKVLEIPYKGKDLSMIVLLPNEIDGLQKLEEKLTAEKLMEWTSLQNMRETRVDLHLPRFKVEESYDLKDTLRTMGMVDIFNGDADLSGMTGSRGLVLSGVLHKAFVEVTEEGAEAAAATAVVGFGSSPTSTNEEFHCNHPFLFFIRQNKTNSILFYGRFSSP |  | induced the 20 time-depending scattering of strictly cohesive colonies of MDK cells | takes place through a diffusion process
